Laboratory results as given in patent US20180155451A1 (published 2018).

T1: FcγRIIa H (human, UniProt P12318 34-217)
T1 construct: extracellular domain; also called FcgRIIa H type; 2aH; not shown: His tag at the C terminus
T1 sequence (looked up): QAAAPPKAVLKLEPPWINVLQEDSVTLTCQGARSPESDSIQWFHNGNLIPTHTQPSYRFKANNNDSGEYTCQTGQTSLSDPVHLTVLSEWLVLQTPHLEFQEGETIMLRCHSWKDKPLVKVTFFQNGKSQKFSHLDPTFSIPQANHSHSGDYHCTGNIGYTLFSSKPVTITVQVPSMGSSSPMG

B1: GpH7-A5/GpH7-B3 variant K334_04F/GpL16-k0 (antibody, human IgG1, kappa)
heavy 1: not shown
heavy 2: not shown
light: DIVMTQSPLSLPVTPGEPASISCQASESLVHSNRNTYLHWYLQKPGQSPQLLIYKVSNRFSGVPDRFSGSGSGTDFTLKISRVEAEDVGVYYCSQNTHVPPTFGQGTKVEIERTVAAPSVFIFPPSDEQLKSGTASVVCLLNNFYPREAKVQWKVDNALQSGNSQESVTEQDSKDSTYSLSSTLTLSKADYEKHKVYACEVTHQGLSSPVTKSFNRGEC
notes: also called He Ab K334_04F
B2: GpH7-A5/GpH7-B3 variant T335_07I/GpL16-k0 (antibody, human IgG1, kappa)
heavy 1: not shown
heavy 2: not shown
light: B1 light
notes: also called He Ab T335_07I
B3: GpH7-A5/GpH7-B3 variant K334_14T/GpL16-k0 (antibody, human IgG1, kappa)
heavy 1: not shown
heavy 2: not shown
light: B1 light
notes: also called He Ab K334_14T
B4: GpH7-A5/GpH7-B3 variant T335_19Q/GpL16-k0 (antibody, human IgG1, kappa)
heavy 1: not shown
heavy 2: not shown
light: B1 light
notes: also called He Ab T335_19Q
B5: GpH7-A5/GpH7-B3 variant S324_20W/GpL16-k0 (antibody, human IgG1, kappa)
heavy 1: not shown
heavy 2: not shown
light: B1 light
notes: also called He Ab S324_20W
B6: GpH7-A5/GpH7-B3 variant S324_09D/GpL16-k0 (antibody, human IgG1, kappa)
heavy 1: not shown
heavy 2: not shown
light: B1 light
notes: also called He Ab S324_09D
B7: GpH7-A5/GpH7-B3 variant K334_16H/GpL16-k0 (antibody, human IgG1, kappa)
heavy 1: not shown
heavy 2: not shown
light: B1 light
notes: also called He Ab K334_16H
B8: GpH7-A5/GpH7-B3 variant S239_09D/GpL16-k0 (antibody, human IgG1, kappa)
heavy 1: not shown
heavy 2: not shown
light: B1 light
notes: also called He Ab S239_09D
B9: GpH7-A5/GpH7-B3 variant K326_06M/GpL16-k0 (antibody, human IgG1, kappa)
heavy 1: not shown
heavy 2: not shown
light: B1 light
notes: also called He Ab K326_06M
B10: GpH7-A5/GpH7-B3 variant K334_03V/GpL16-k0 (antibody, human IgG1, kappa)
heavy 1: not shown
heavy 2: not shown
light: B1 light
notes: also called He Ab K334_03V
B11: GpH7-A5/GpH7-B3 variant K326_09D/GpL16-k0 (antibody, human IgG1, kappa)
heavy 1: not shown
heavy 2: not shown
light: B1 light
notes: also called He Ab K326_09D
B12: GpH7-A5/GpH7-B3 variant Q295_07I/GpL16-k0 (antibody, human IgG1, kappa)
heavy 1: not shown
heavy 2: not shown
light: B1 light
notes: also called He Ab Q295_07I
B13: GpH7-A5/GpH7-B3 variant Q295_05P/GpL16-k0 (antibody, human IgG1, kappa)
heavy 1: not shown
heavy 2: not shown
light: B1 light
notes: also called He Ab Q295_05P
B14: GpH7-A5/GpH7-B3 variant L328_13S/GpL16-k0 (antibody, human IgG1, kappa)
heavy 1: not shown
heavy 2: not shown
light: B1 light
notes: also called He Ab L328_13S
B15: GpH7-A5/GpH7-B3 variant L328_14T/GpL16-k0 (antibody, human IgG1, kappa)
heavy 1: not shown
heavy 2: not shown
light: B1 light
notes: also called He Ab L328_14T
B16: GpH7-A5/GpH7-B3 variant K334_07I/GpL16-k0 (antibody, human IgG1, kappa)
heavy 1: not shown
heavy 2: not shown
light: B1 light
notes: also called He Ab K334_07I
B17: GpH7-A5/GpH7-B3 variant K334_08L/GpL16-k0 (antibody, human IgG1, kappa)
heavy 1: not shown
heavy 2: not shown
light: B1 light
notes: also called He Ab K334_08L
B18: GpH7-A5/GpH7-B3 variant S337_10E/GpL16-k0 (antibody, human IgG1, kappa)
heavy 1: not shown
heavy 2: not shown
light: B1 light
notes: also called He Ab S337_10E
B19: GpH7-A5/GpH7-B3 variant S267_02A/GpL16-k0 (antibody, human IgG1, kappa)
heavy 1: not shown
heavy 2: not shown
light: B1 light
notes: also called He Ab S267_02A
B20: GpH7-A5/GpH7-B3 variant P271_01G/GpL16-k0 (antibody, human IgG1, kappa)
heavy 1: not shown
heavy 2: not shown
light: B1 light
notes: also called He Ab P271_01G
B21: GpH7-A5/GpH7-B3 variant K326_10E/GpL16-k0 (antibody, human IgG1, kappa)
heavy 1: not shown
heavy 2: not shown
light: B1 light
notes: also called He Ab K326_10E
B22: GpH7-A5/GpH7-B3 variant T335_16H/GpL16-k0 (antibody, human IgG1, kappa)
heavy 1: not shown
heavy 2: not shown
light: B1 light
notes: also called He Ab T335_16H
B23: GpH7-A5/GpH7-B3 variant S337_16H/GpL16-k0 (antibody, human IgG1, kappa)
heavy 1: not shown
heavy 2: not shown
light: B1 light
notes: also called He Ab S337_16H
B24: GpH7-A5/GpH7-B3 variant S337_09D/GpL16-k0 (antibody, human IgG1, kappa)
heavy 1: not shown
heavy 2: not shown
light: B1 light
notes: also called He Ab S337_09D
B25: GpH7-A5/GpH7-B3 variant K326_14T/GpL16-k0 (antibody, human IgG1, kappa)
heavy 1: not shown
heavy 2: not shown
light: B1 light
notes: also called He Ab K326_14T
B26: GpH7-A5/GpH7-B3 variant L235_20W/GpL16-k0 (antibody, human IgG1, kappa)
heavy 1: not shown
heavy 2: not shown
light: B1 light
notes: also called He Ab L235_20W
B27: GpH7-A5/GpH7-B3 variant L328_06M/GpL16-k0 (antibody, human IgG1, kappa)
heavy 1: not shown
heavy 2: not shown
light: B1 light
notes: also called He Ab L328_06M
B28: GpH7-A5/GpH7-B3 variant T335_01G/GpL16-k0 (antibody, human IgG1, kappa)
heavy 1: not shown
heavy 2: not shown
light: B1 light
notes: also called He Ab T335_01G

biological target: T1, FcγRIIa H; assay: SPR Biacore, relative binding

He/Con_2aH	Binder
106 % of GpH7-A5/GpH7-B3/GpL16-k0 (=100)	B1
108 % of GpH7-A5/GpH7-B3/GpL16-k0 (=100)	B2
103 % of GpH7-A5/GpH7-B3/GpL16-k0 (=100)	B3
103 % of GpH7-A5/GpH7-B3/GpL16-k0 (=100)	B4
103 % of GpH7-A5/GpH7-B3/GpL16-k0 (=100)	B5
106 % of GpH7-A5/GpH7-B3/GpL16-k0 (=100)	B6
104 % of GpH7-A5/GpH7-B3/GpL16-k0 (=100)	B7
114 % of GpH7-A5/GpH7-B3/GpL16-k0 (=100)	B8
103 % of GpH7-A5/GpH7-B3/GpL16-k0 (=100)	B9
109 % of GpH7-A5/GpH7-B3/GpL16-k0 (=100)	B10
110 % of GpH7-A5/GpH7-B3/GpL16-k0 (=100)	B11
102 % of GpH7-A5/GpH7-B3/GpL16-k0 (=100)	B12
103 % of GpH7-A5/GpH7-B3/GpL16-k0 (=100)	B13
123 % of GpH7-A5/GpH7-B3/GpL16-k0 (=100)	B14
116 % of GpH7-A5/GpH7-B3/GpL16-k0 (=100)	B15
110 % of GpH7-A5/GpH7-B3/GpL16-k0 (=100)	B16
104 % of GpH7-A5/GpH7-B3/GpL16-k0 (=100)	B17
102 % of GpH7-A5/GpH7-B3/GpL16-k0 (=100)	B18
120 % of GpH7-A5/GpH7-B3/GpL16-k0 (=100)	B19
107 % of GpH7-A5/GpH7-B3/GpL16-k0 (=100)	B20
102 % of GpH7-A5/GpH7-B3/GpL16-k0 (=100)	B21
105 % of GpH7-A5/GpH7-B3/GpL16-k0 (=100)	B22
101 % of GpH7-A5/GpH7-B3/GpL16-k0 (=100)	B23
107 % of GpH7-A5/GpH7-B3/GpL16-k0 (=100)	B24
114 % of GpH7-A5/GpH7-B3/GpL16-k0 (=100)	B25
118 % of GpH7-A5/GpH7-B3/GpL16-k0 (=100)	B26
104 % of GpH7-A5/GpH7-B3/GpL16-k0 (=100)	B27
103 % of GpH7-A5/GpH7-B3/GpL16-k0 (=100)	B28
